Laboratory results as given in US20040006777A1, “Human lymphoid protein tyrosine phosphatases” (HSC Research and Development Limited Partnership, priority 1998, published 2004).
Substitutions are numbered along the chain they refer to. “Also recorded” adds a separate entry of the source.

Legend:
Syk = assay: Co-transfection of Lyp1 or Lyp-N and kinase cDNA, kinase immunoprecipitation, anti-phosphotyrosine Western blot; type: cell-based; details: co-transfection with Syk
Description: (§1) Western blotting was performed with anti-phosphotyrosine antibodies and chemiluminescent detection reagents. […] Syk was unaffected by Lyp1 (C).
(§2) Western blotting was performed with anti-phosphotyrosine antibodies and chemiluminescent detection reagents. Lyp1 reduced the tyrosine phosphorylation of Jak3 (C) while having little effect on Syk (D). No effect was seen when Syk was co-transfected with Lyp-N (D).
cDNA for the phosphatase Lyp1 and the indicated kinase, in the eucaryotic expression vector pcDNA3, were transiently transfected into either the COS-7 monkey epithelial cell line (A) or the 293T human epithelial cell line as indicated. 48 hours after transfection, cells were harvested, lysates made in 1 & NP-40 lysis buffer and immunoprecipitations performed with antibodies to the transfected kinase. Immunoprecipitates were washed, boiled in SDS sample buffer and electrophoresed on SDS-PAGE. After electro-transfer to nitrocellulose membrane, Western blotting was performed with anti-phosphotyrosine antibodies and chemiluminescent detection reagents. […] Lyp1 could also down-regulate Zap-70 after its activation by Fyn in 293-T cells (B, lanes 3 and 4). The closely related Zap family kinase Syk was also unaffected by Lyp1 (C). […]

Cbl = assay: Lyp1 transfection into COS-7 cells, Cbl immunoprecipitation, anti-phosphotyrosine blot; type: cell-based, monkey; details: Lyp1 transfected COS-7 cells, endogenous Cbl
Description: (A) Lyp immunoprecipitates from thymocytes (80×10^6 cells) stimulated with anti-CD3 were blotted with antiphsophotyrosine. A single phosphorylated band of 116 kD was detected co-immunoprecipitating with Lyp. Lyp protein loading was quantitated by anti-Lyp western blot after stripping. […] (C) Lyp1 was transfected into COS-7 cells and Cbl immunoprecipitates prepared from these and untransfected cells. Western blotting was performed with Lyp antibodies. The position of Lyp is indicted by an arrow. Cbl immunoprecipitates were also prepared and blotted with anti-phosphotyrosine (D), and then anti-Cbl after stripping.
One of the earliest events following TCR stimulation of T cells is the induction of tyrosine phosphorylation. In order to determine whether Lyp played a role in TCR signalling, human thymocytes were stimulated with anti-CD3 for various periods of time, Lyp immunoprecipitated and blotted with anti-phosphotyrosine. […] Once activated, the phosphorylation level of this protein remained constant over a period of 20 minutes. The 116 kD phosphorylated protein was identified by western blotting of Lyp immunoprecipitates from CD3 stimulated thymocytes with antibodies to various candidate proteins. […]

Lyp1 = molecular target: T1, Lyp1 (Homo sapiens, UniProt Q9Y2R2); assay: In vitro phosphatase assay with 33P labelled Raytide peptide and Lyp immunoprecipitates; type: biochemical; details: Lyp immunoprecipitates from transfected COS cells compared to control immunoprecipitates from untransfected cells
T1 construct: made in house; host or cells: COS cells (transient transfection, pcDNA3); anti-T7 immunoprecipitate
T1 sequence (Q9Y2R2 1-807): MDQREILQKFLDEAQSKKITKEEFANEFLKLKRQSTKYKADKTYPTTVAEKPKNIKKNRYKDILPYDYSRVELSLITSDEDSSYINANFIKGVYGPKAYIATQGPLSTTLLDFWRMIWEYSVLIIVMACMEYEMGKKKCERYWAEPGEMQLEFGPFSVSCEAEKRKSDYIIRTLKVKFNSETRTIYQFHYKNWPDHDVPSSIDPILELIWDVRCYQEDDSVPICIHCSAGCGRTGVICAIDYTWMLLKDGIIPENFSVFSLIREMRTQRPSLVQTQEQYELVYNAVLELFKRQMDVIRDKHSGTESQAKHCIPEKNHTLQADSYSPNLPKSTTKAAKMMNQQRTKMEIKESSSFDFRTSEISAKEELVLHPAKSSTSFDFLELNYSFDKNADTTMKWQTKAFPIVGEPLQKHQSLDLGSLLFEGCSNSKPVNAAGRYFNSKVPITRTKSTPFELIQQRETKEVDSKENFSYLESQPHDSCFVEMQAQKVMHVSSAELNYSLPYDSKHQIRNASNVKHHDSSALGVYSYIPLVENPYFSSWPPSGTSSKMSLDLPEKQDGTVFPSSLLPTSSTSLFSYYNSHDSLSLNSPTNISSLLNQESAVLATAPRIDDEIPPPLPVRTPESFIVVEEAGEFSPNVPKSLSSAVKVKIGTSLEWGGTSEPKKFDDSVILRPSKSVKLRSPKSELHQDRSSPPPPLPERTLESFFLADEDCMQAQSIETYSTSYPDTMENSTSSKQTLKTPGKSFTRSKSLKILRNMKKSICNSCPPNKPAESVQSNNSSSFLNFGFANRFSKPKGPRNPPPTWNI
Description: Anti-Lyp immunoprecipitates from untransfected and pcDNA3-Lyp1 transfected cells were prepared in pervanadate free lysis buffer and incubated with ^33P labelled substrate Raytide. At the indicated time points reactions were stopped by the addition of charcoal and the free ^33P released from the peptide and now present in the supernatant measured by liquid scintillation counting.
Raytide peptide was ^33P labelled on tyrosine residues in vitro using the tyrosine kinase p60src and purified on phosphocellulose paper. Release of ^33P over time was measured in the phosphatase assay and compared to controls from untransfected cells.
Specifically, the synthetic peptide Raytide was phosphorylated according to the method described by Guan et al., (1994)(54), on tyrosine by p60src (Oncogene Science) as follows: 10 μg Raytide in 50 mM Hepes pH 7.5, 10 mM MgCl2, 0.067% mercaptoethanol, 0.05 mM ATP was incubated with 300 μCiγ^33P ATP per ml and 2 μg p60src in a final volume of 30 μl. The reaction was allowed to proceed for 30 minutes at 30° C. and was stopped by the addition of […] 10% phosphoric acid.
The sample was spotted onto two 1×1 cm sheets of P81 phophocellulose paper and extensively washed with 0.5% phosphoric acid. […]
The phosphorylated substrate was used in the phosphatase assay as described by Stueli et al (1989)(54). […] After centrifugation the free ^33P in the supernatant was measured.

Jak3 = assay: Co-transfection of Lyp1 and kinase cDNA in COS-7, kinase immunoprecipitation, anti-phosphotyrosine Western blot; type: cell-based; details: COS-7 cells
Description: as §2
cDNA for the phosphatase Lyp1 and the indicated kinase, in the eucaryotic expression vector pcDNA3, were transiently transfected into the COS-7 monkey epithelial cell line. 48 hours after transfection, cells were harvested, lysates made in 1% NP-40 lysis buffer and immunoprecipitations performed with antibodies to the transfected kinase. Immunoprecipitates were washed, boiled in SDS sample buffer and electrophoesed on SDS-PAGE. After electro-transfer to nitrocellulose membrane, Western blotting was performed with anti-phosphotyrosine antibodies and chemiluminescent detection reagents.

Fyn = assay: Co-transfection of Lyp1 and kinase cDNA, kinase immunoprecipitation, anti-phosphotyrosine Western blot; type: cell-based; details: COS-7 and 293-T cells
Description: as §1
(§3) cDNA for the phosphatase Lyp1 and the indicated kinase, in the eucaryotic expression vector pcDNA3, were transiently transfected into either the COS-7 monkey epithelial cell line (A) or the 293T human epithelial cell line as indicated. 48 hours after transfection, cells were harvested, lysates made in 1 & NP-40 lysis buffer and immunoprecipitations performed with antibodies to the transfected kinase. Immunoprecipitates were washed, boiled in SDS sample buffer and electrophoresed on SDS-PAGE. After electro-transfer to nitrocellulose membrane, Western blotting was performed with anti-phosphotyrosine antibodies and chemiluminescent detection reagents. […] Lyp1 could also down-regulate Zap-70 after its activation by Fyn in 293-T cells (B, lanes 3 and 4). The closely related Zap family kinase Syk was also unaffected by Lyp1 (C).

Zap-70 = assay: as above; type: cell-based
Description: as §1, §3

Ick = assay: Co-transfection of Lyp1 and src family kinases; type: cell-based; details: Lyp1 with src family kinases
Lyn kinase = assay: Effect of Lyp1 on Lyn kinase activity; type: cell-based

B1: Lyp-N: catalytically inactive form of Lyp1 where Cysteine 227 is replaced by Serine (protein, UniProt Q9Y2R2 1-807, looked up, variant C227S)
Tyrosine-protein phosphatase …: T1 sequence (Q9Y2R2 1-807) with C227S
For B1, which Syk tyrosine phosphorylation (Syk) is on record?
The Syk tyrosine phosphorylation was “No effect”.

B2: Lyp1: human intracellular 105 kDa lymphoid protein tyrosine phosphatase, 808 amino acids, Sequence ID NO:2 (Table 2) (protein, listed as Homo sapiens)
chain: MDQREILQKFLDEAQSKKITKEEFANEFLKLKRQSTKYKADKTYPTTVAENAKNIKKNRYKDILPYDYSRVELSLITSDEDSSYINANFIKGVYGPKAYIATQGPLSTTLLDFWRMIWEYSVLIIVMACMEYEMGKKKCERYWAEPGEMQLEFGPFSVSCEAEKRKSDYIIRTLKVKFNSETRTIYQFHYKNWPDHDVPSSIDPILELIWDVRCYQEDDSVPICIHCSAGCGRTGVICAIVDYTWMLLKDGIIPENFSVFSLIREMRTQRPSLVQTQEQYELVYNAVLELFKRQMDVIRDKHSGTESQAKHCIPEKNHTLQADSYSPNLPKSTTKAAKMMNQQRTKMEIKESSSFDFRTSEISAKEELVLHPAKSSTSFDFLELNYSFDKNADTTMKWQTKAFPIVGEPLQKHQSLDLGSLLFEGCSNSKPVNAAGRYFNSKVPITRTKSTPFELIQQRETKEVDSKENFSYLESQPHDSCFVEMQAQKVMHVSSAELNYSLPYDSKHQIRNASNVKHHDSSALGVYSYIPLVENPYFSSWPPSGTSSKMSLDLPEKQDGTVFPSSLLPTSSTSLFSYYNSHSSLSLNSPTNISSLLNQESAVLATAPRIDDEIPPPLPVRTPESFIVVEEAGEFSPNVPKSLSSAVKVKIGTSLEWGGTSEPKKFDDSVILRPSKSVKLRSPKSELHQDRSSPPPPLPERTLESFFLADEDCMQAQSIETYSTSYPDTMENSTSSKQTLKTPGKSFTRSKSLKILRNMKKSICNSCPPNKPAESVQSNNSSSFLNFGFANRFSKPKGPRNPPPTWNI
What does the source list for B2?
basal level of Cbl tyrosine phosphorylation (Cbl): reduce significantly; 33P release from the substrate Raytide (Lyp1): seven fold increase; Syk tyrosine phosphorylation (Syk): unaffected; also recorded: little effect; also recorded: no Syk dephosphorylation; Jak3 tyrosine phosphorylation (Jak3): clearly reduced; also recorded: complete dephosphorylation; Fyn tyrosine phosphorylation (Fyn): unaffected; also recorded: no dephosphorylation; Zap-70 phosphorylation after its activation by Fyn (Zap-70; 293-T cells): down-regulate; Zap-70 tyrosine phosphorylation (Zap-70; COS-7 and 293-T cells): reduction; also recorded: complete dephosphorylation; Ick dephosphorylation (Ick): no dephosphorylation; Lyn kinase activity (Lyn kinase): strongly down-regulates
